First the molecules themselves.
B1: PYR1*^MANDI, pBD two-hybrid fusion [not stated] / HAB1*, pACT two-hybrid fusion [not stated] (parent)
chain 1: MPSELTPEERSELKNSIAEFHTYQLDPGSCSSLHAQRIHAPPELVWSIVRRFDKPQTHRHFIKSCSVEQNFEMRVGCTRDIIVISGLPANTSTERLDILDDERRVTGASIIGGEHRLTNYKGVTTVHRFEKENRIWTVVLESYVVDMPEGNSEDDTRIVVDDVVKLNLQKLATVAEAMARNSGDGSGSQVT
chain 2: MEEMTPAVAMTLSLAANTMCESSPVEITQLKNVTDAADLLSDSENQSFCNGGTECTMEDVSELEEVGEQDLLKTLSDTRSGSSNVFDEDDVLSVVEDNSAVISEGLLVVDAGSELSLSNTAMEIDNGRVLATAIIVGESSIEQVPTAEVLIAGVNQDTNTSEVVIRLPDENSNHLVKGRSVYELDCIPLWGTVSIQGNASEMEAAFAVSPHFLKLPIKMLMGDHEGMSPSLTHLTGHFFGVYDGHGGHKVADYCRDRLHFALAEEIERIKDELCKRNTGEGRQVQWDKVFTSCFLTVDGEIEGKIGRAVVGSSDKVLEAVADETVGSTAVVALVCSSHIVVSNCGDSRAVLFRGKEAMPLSVDHKPDREDEYARIENAGGKVIQWQGARVFGRLAMSRSIGDRYLKPYVIPEPEVTFMPRSREDECLILASDGLWDVMNNQEVCEIARRRILMWHKKNGAPPLAERGKGIDPACQAAADYLSMLALQKGSKDNISIIVIDLKAQAKFKTRT

Variants of B1 are the subject of the first test. The test can be described thus: β-gal-based Y2H assay. The following applies: with HAB1*, ligand: malathion.
Consider chain 1 V83A, for which the screen value was 100 µM.

The test is the same for the next values; noted with them: with HAB1*, ligand: pirimiphos.
As to chain 1 S92M, the screen value was found to be 25 µM.

Staying with this test, now noted: with HAB1*, ligand: disulfoton.
Turning to chain 1 M147V, the screen value worked out at 100 µM.

Still in this test, the particulars now being: with HAB1*, ligand: azinphos.
As for chain 1 V83W R116S, the screen value was 10 µM.

Still in this test, the particulars now being: with HAB1*, ligand: azinphos-ethyl.
Turning to chain 1 V83W R116S, the screen value amounted to 0.01 µM.

In the case of chain 1 V83W I110Y R116S, the screen value amounted to 0.25 µM. In the case of chain 1 V83W I110Y R116S V164Y, the screen value worked out at 0.01 µM.

The test is the same for the next values; noted with them: with HAB1*, ligand: diazinon.
Take chain 1 A108V: the screen value was 100 µM.

Still in this test, the particulars now being: with HAB1*, ligand: chlorofenvinphos.
chain 1 G122Q: the screen value turned out to be 12.5 µM.
